Assay results as given in PMC8611094, “RNA G-quadruplex structures control ribosomal protein production”.

Target: DDX3X (UniProt O00571 1-662)
Assay: ELISA; ELISA performed as in Zyner et al. (ref 43); buffer, salt, pH and temperature not given in the material
Conditions: protein: commercial; tags: FLAG; label: 5' biotin; intramolecular G4

Chain of DDX3X (O00571 whole entry): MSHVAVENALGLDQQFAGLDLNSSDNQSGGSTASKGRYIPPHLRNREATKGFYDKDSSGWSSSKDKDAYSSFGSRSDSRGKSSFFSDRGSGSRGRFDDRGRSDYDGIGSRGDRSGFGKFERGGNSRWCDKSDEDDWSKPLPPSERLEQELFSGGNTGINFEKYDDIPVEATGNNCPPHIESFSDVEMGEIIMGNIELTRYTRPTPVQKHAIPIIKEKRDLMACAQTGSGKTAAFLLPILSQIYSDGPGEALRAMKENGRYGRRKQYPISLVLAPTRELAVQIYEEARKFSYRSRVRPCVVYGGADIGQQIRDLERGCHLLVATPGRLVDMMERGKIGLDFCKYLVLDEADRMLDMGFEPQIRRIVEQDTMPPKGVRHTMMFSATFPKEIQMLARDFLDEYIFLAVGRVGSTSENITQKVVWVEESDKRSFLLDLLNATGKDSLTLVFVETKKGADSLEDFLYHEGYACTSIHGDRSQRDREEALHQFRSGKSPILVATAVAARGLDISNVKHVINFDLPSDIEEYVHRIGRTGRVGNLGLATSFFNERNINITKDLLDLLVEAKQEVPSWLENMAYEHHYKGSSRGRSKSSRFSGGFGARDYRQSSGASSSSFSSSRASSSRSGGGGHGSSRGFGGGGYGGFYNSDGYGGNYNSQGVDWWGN

Binder: UGUGGGAGGGGCGGGUCUGGGUGC (structured_RNA) [NRAS G4]
- Kd: 18 nM
